Experimental data reported in patent US20220177594A1.

Legend:
[1] = biological target: Feline_OSMR_hlgG1_Fc (feline); assay: indirect ELISA, fOSMR coated; OD ratio to antibody expression control
[2] = biological target: Feline_OSMR_hlgG1_Fc (feline); assay: SPR Biacore

Chain of Feline_OSMR_hlgG1_Fc (feline) (chain, as listed by the source limits assumed, form in doubt): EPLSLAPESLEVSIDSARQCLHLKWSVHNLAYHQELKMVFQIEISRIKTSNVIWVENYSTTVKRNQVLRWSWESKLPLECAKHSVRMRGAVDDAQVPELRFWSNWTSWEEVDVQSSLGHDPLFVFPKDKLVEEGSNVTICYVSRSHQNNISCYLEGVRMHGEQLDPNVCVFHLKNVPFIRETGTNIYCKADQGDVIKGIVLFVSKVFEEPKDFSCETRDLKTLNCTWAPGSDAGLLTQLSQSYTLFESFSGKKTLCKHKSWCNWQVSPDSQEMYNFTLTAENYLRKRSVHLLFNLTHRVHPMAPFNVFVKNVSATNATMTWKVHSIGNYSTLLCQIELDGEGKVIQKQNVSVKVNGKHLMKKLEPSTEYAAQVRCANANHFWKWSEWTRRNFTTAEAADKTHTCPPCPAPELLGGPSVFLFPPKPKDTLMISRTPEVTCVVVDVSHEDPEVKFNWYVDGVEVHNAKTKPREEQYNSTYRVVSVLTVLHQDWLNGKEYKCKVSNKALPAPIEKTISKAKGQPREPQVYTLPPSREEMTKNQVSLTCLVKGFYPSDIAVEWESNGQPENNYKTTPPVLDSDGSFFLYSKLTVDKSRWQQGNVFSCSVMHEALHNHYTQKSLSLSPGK

ELISA ratio [1]	Kd [2]	koff [2]	kon [2]	Binder
1.05 OD ratio	1.37 nM	0.00104 s⁻¹	756000 M⁻¹ s⁻¹	Mu_09E09_VH (SEQ ID NO: 35)_S35A (antibody, V domains shown) VH: DVKLVESGEGLVKPGGSLKLSCAASGFTFSSYAMAWVRQTPEKRLEWVAYISSGGDYIYYADTVKGRFTISRDNARNTLYLQMSSLKSEDTAMYYCTRDPITGTFAYWGQGTLVTVSA VL: DLQMTQTTSSLSASLGDRVTISCRASQDINNYLNWYQQKPDGTVKLLIYYTSTLHSGVPSRFSGSGSGTDYSLTISNLEQEDIATYFCQQGNTLPWTFGGGTKLEIKR
0.388 OD ratio	1.94 nM	0.00187 s⁻¹	964000 M⁻¹ s⁻¹	Mu_09E09_VH (SEQ ID NO: 35)_T102A (antibody, V domains shown) VH: DVKLVESGEGLVKPGGSLKLSCAASGFTFSSYAMSWVRQTPEKRLEWVAYISSGGDYIYYADTVKGRFTISRDNARNTLYLQMSSLKSEDTAMYYCTRDPIAGTFAYWGQGTLVTVSA VL: DLQMTQTTSSLSASLGDRVTISCRASQDINNYLNWYQQKPDGTVKLLIYYTSTLHSGVPSRFSGSGSGTDYSLTISNLEQEDIATYFCQQGNTLPWTFGGGTKLEIKR
0.092 OD ratio	0.632 nM	0.00158 s⁻¹	2.51e+06 M⁻¹ s⁻¹	Mu_09E09_VL (SEQ ID NO: 37)_Y32A (antibody, V domains shown) VH: DVKLVESGEGLVKPGGSLKLSCAASGFTFSSYAMSWVRQTPEKRLEWVAYISSGGDYIYYADTVKGRFTISRDNARNTLYLQMSSLKSEDTAMYYCTRDPITGTFAYWGQGTLVTVSA VL: DLQMTQTTSSLSASLGDRVTISCRASQDINNALNWYQQKPDGTVKLLIYYTSTLHSGVPSRFSGSGSGTDYSLTISNLEQEDIATYFCQQGNTLPWTFGGGTKLEIKR
0.136 OD ratio	2.21 nM	0.00203 s⁻¹	918000 M⁻¹ s⁻¹	Mu_09E09_VL (SEQ ID NO: 37)_G91A (antibody, V domains shown) VH: DVKLVESGEGLVKPGGSLKLSCAASGFTFSSYAMSWVRQTPEKRLEWVAYISSGGDYIYYADTVKGRFTISRDNARNTLYLQMSSLKSEDTAMYYCTRDPITGTFAYWGQGTLVTVSA VL: DLQMTQTTSSLSASLGDRVTISCRASQDINNYLNWYQQKPDGTVKLLIYYTSTLHSGVPSRFSGSGSGTDYSLTISNLEQEDIATYFCQQANTLPWTFGGGTKLEIKR
0.908 OD ratio	1.76 nM	0.00108 s⁻¹	612000 M⁻¹ s⁻¹	Mu_09E09_VH (SEQ ID NO: 35)_D99A (antibody, V domains shown) VH: DVKLVESGEGLVKPGGSLKLSCAASGFTFSSYAMSWVRQTPEKRLEWVAYISSGGDYIYYADTVKGRFTISRDNARNTLYLQMSSLKSEDTAMYYCTRAPITGTFAYWGQGTLVTVSA VL: DLQMTQTTSSLSASLGDRVTISCRASQDINNYLNWYQQKPDGTVKLLIYYTSTLHSGVPSRFSGSGSGTDYSLTISNLEQEDIATYFCQQGNTLPWTFGGGTKLEIKR
0 OD ratio	6.88 nM	0.000701 s⁻¹	102000 M⁻¹ s⁻¹	Mu_10F07_VH (SEQ ID NO: 39)_I101A (antibody, V domains shown) VH: DVKLVESGEGLVKPGGSLKLSCAASGFTFSSYAMSWVRQTPEKRLEWVTYISSGGDYFYYADTVKGRFTISRDNARNTLYLQMSSLKSEDTAMYYCTRDPATGTFAYWGQGTLVTVSA VL: DIQMTQTTSSLSASLGDRVTISCRASQDITNYLNWYQQKPDGTVKLLIYYTSTLHSGVPSRFSGSGSGTDFSLTISNLEQEDIATYFCQQGHMLPWTFGGGTKLEIKR
0.052 OD ratio	2.54 nM	0.0024 s⁻¹	943000 M⁻¹ s⁻¹	Mu_09E09_VH (SEQ ID NO: 35)_Y57A (antibody, V domains shown) VH: DVKLVESGEGLVKPGGSLKLSCAASGFTFSSYAMSWVRQTPEKRLEWVAYISSGGDAIYYADTVKGRFTISRDNARNTLYLQMSSLKSEDTAMYYCTRDPITGTFAYWGQGTLVTVSA VL: DLQMTQTTSSLSASLGDRVTISCRASQDINNYLNWYQQKPDGTVKLLIYYTSTLHSGVPSRFSGSGSGTDYSLTISNLEQEDIATYFCQQGNTLPWTFGGGTKLEIKR
0.946 OD ratio	1.27 nM	0.000926 s⁻¹	729000 M⁻¹ s⁻¹	Mu_09E09_VH (SEQ ID NO: 35)_P100A (antibody, V domains shown) VH: DVKLVESGEGLVKPGGSLKLSCAASGFTFSSYAMSWVRQTPEKRLEWVAYISSGGDYIYYADTVKGRFTISRDNARNTLYLQMSSLKSEDTAMYYCTRDAITGTFAYWGQGTLVTVSA VL: DLQMTQTTSSLSASLGDRVTISCRASQDINNYLNWYQQKPDGTVKLLIYYTSTLHSGVPSRFSGSGSGTDYSLTISNLEQEDIATYFCQQGNTLPWTFGGGTKLEIKR
0.055 OD ratio	0.621 nM	0.00167 s⁻¹	2.68e+06 M⁻¹ s⁻¹	Mu_09E09_VL (SEQ ID NO: 37)_L94A (antibody, V domains shown) VH: DVKLVESGEGLVKPGGSLKLSCAASGFTFSSYAMSWVRQTPEKRLEWVAYISSGGDYIYYADTVKGRFTISRDNARNTLYLQMSSLKSEDTAMYYCTRDPITGTFAYWGQGTLVTVSA VL: DLQMTQTTSSLSASLGDRVTISCRASQDINNYLNWYQQKPDGTVKLLIYYTSTLHSGVPSRFSGSGSGTDYSLTISNLEQEDIATYFCQQGNTAPWTFGGGTKLEIKR
0.023 OD ratio	5.02 nM	0.00161 s⁻¹	321000 M⁻¹ s⁻¹	Mu_09E09_VL (SEQ ID NO: 37)_N34A (antibody, V domains shown) VH: DVKLVESGEGLVKPGGSLKLSCAASGFTFSSYAMSWVRQTPEKRLEWVAYISSGGDYIYYADTVKGRFTISRDNARNTLYLQMSSLKSEDTAMYYCTRDPITGTFAYWGQGTLVTVSA VL: DLQMTQTTSSLSASLGDRVTISCRASQDINNYLAWYQQKPDGTVKLLIYYTSTLHSGVPSRFSGSGSGTDYSLTISNLEQEDIATYFCQQGNTLPWTFGGGTKLEIKR
0 OD ratio	0.00714 nM	1.73e-06 s⁻¹	242000 M⁻¹ s⁻¹	Mu_10F07_VL (SEQ ID NO: 41)_Y50A (antibody, V domains shown) VH: DVKLVESGEGLVKPGGSLKLSCAASGFTFSSYAMSWVRQTPEKRLEWVTYISSGGDYFYYADTVKGRFTISRDNARNTLYLQMSSLKSEDTAMYYCTRDPITGTFAYWGQGTLVTVSA VL: DIQMTQTTSSLSASLGDRVTISCRASQDITNYLNWYQQKPDGTVKLLIYATSTLHSGVPSRFSGSGSGTDFSLTISNLEQEDIATYFCQQGHMLPWTFGGGTKLEIKR
0.31 OD ratio	2.85 nM	0.00177 s⁻¹	622000 M⁻¹ s⁻¹	Mu_09E09_VH (SEQ ID NO: 35)_Y50A (antibody, V domains shown) VH: DVKLVESGEGLVKPGGSLKLSCAASGFTFSSYAMSWVRQTPEKRLEWVAAISSGGDYIYYADTVKGRFTISRDNARNTLYLQMSSLKSEDTAMYYCTRDPITGTFAYWGQGTLVTVSA VL: DLQMTQTTSSLSASLGDRVTISCRASQDINNYLNWYQQKPDGTVKLLIYYTSTLHSGVPSRFSGSGSGTDYSLTISNLEQEDIATYFCQQGNTLPWTFGGGTKLEIKR
0.256 OD ratio	2.4 nM	0.00186 s⁻¹	772000 M⁻¹ s⁻¹	Mu_09E09_VH (SEQ ID NO: 35)_F105A (antibody, V domains shown) VH: DVKLVESGEGLVKPGGSLKLSCAASGFTFSSYAMSWVRQTPEKRLEWVAYISSGGDYIYYADTVKGRFTISRDNARNTLYLQMSSLKSEDTAMYYCTRDPITGTAAYWGQGTLVTVSA VL: DLQMTQTTSSLSASLGDRVTISCRASQDINNYLNWYQQKPDGTVKLLIYYTSTLHSGVPSRFSGSGSGTDYSLTISNLEQEDIATYFCQQGNTLPWTFGGGTKLEIKR
0.32 OD ratio	11.5 nM	0.00194 s⁻¹	169000 M⁻¹ s⁻¹	Mu_02D09_VH (SEQ ID NO: 31)_Y101A (antibody, V domains shown) VH: EVQLVESGGGLVKPGGSLTLSCAASGFTFSDYGMHWLRQAPEKGLEWVAYISSGSRAVFFADTVKGRFTISRDNAKNTLFLQMTSLRSDDTAMYYCARDRADGRGFAYWGQGTLVTVSA VL: DIVLTQSPATLSVTPGDSVSLSCRASQSISNNLHWYQQTSHESPRLLITYASQSISGIPSRFSGSGSGTDFTLSINSVETEDFGMYFCQQSNSWPLTFGAGTKLELKR
0.377 OD ratio	7.26 nM	0.00113 s⁻¹	155000 M⁻¹ s⁻¹	Mu_02D09_VL (SEQ ID NO: 33)_I29A (antibody, V domains shown) VH: EVQLVESGGGLVKPGGSLTLSCAASGFTFSDYGMHWLRQAPEKGLEWVAYISSGSRAVFFADTVKGRFTISRDNAKNTLFLQMTSLRSDDTAMYYCARDRYDGRGFAYWGQGTLVTVSA VL: DIVLTQSPATLSVTPGDSVSLSCRASQSASNNLHWYQQTSHESPRLLITYASQSISGIPSRFSGSGSGTDFTLSINSVETEDFGMYFCQQSNSWPLTFGAGTKLELKR
0 OD ratio	0.000765 nM	7.94e-08 s⁻¹	104000 M⁻¹ s⁻¹	Mu_02D09_VL (SEQ ID NO: 33)_W94A (antibody, V domains shown) VH: EVQLVESGGGLVKPGGSLTLSCAASGFTFSDYGMHWLRQAPEKGLEWVAYISSGSRAVFFADTVKGRFTISRDNAKNTLFLQMTSLRSDDTAMYYCARDRYDGRGFAYWGQGTLVTVSA VL: DIVLTQSPATLSVTPGDSVSLSCRASQSISNNLHWYQQTSHESPRLLITYASQSISGIPSRFSGSGSGTDFTLSINSVETEDFGMYFCQQSNSAPLTFGAGTKLELKR
1.27 OD ratio	0.000648 nM	2.85e-07 s⁻¹	440000 M⁻¹ s⁻¹	Mu_02D09_VL (SEQ ID NO: 33)_L96A (antibody, V domains shown) VH: EVQLVESGGGLVKPGGSLTLSCAASGFTFSDYGMHWLRQAPEKGLEWVAYISSGSRAVFFADTVKGRFTISRDNAKNTLFLQMTSLRSDDTAMYYCARDRYDGRGFAYWGQGTLVTVSA VL: DIVLTQSPATLSVTPGDSVSLSCRASQSISNNLHWYQQTSHESPRLLITYASQSISGIPSRFSGSGSGTDFTLSINSVETEDFGMYFCQQSNSWPATFGAGTKLELKR
0 OD ratio	0.449 nM	5.79e-05 s⁻¹	129000 M⁻¹ s⁻¹	Mu_02D09_VH (SEQ ID NO: 31)_R104A (antibody, V domains shown) VH: EVQLVESGGGLVKPGGSLTLSCAASGFTFSDYGMHWLRQAPEKGLEWVAYISSGSRAVFFADTVKGRFTISRDNAKNTLFLQMTSLRSDDTAMYYCARDRYDGAGFAYWGQGTLVTVSA VL: DIVLTQSPATLSVTPGDSVSLSCRASQSISNNLHWYQQTSHESPRLLITYASQSISGIPSRFSGSGSGTDFTLSINSVETEDFGMYFCQQSNSWPLTFGAGTKLELKR
0.058 OD ratio	13.9 nM	0.00174 s⁻¹	125000 M⁻¹ s⁻¹	Mu_02D09_VH (SEQ ID NO: 31)_D102A (antibody, V domains shown) VH: EVQLVESGGGLVKPGGSLTLSCAASGFTFSDYGMHWLRQAPEKGLEWVAYISSGSRAVFFADTVKGRFTISRDNAKNTLFLQMTSLRSDDTAMYYCARDRYAGRGFAYWGQGTLVTVSA VL: DIVLTQSPATLSVTPGDSVSLSCRASQSISNNLHWYQQTSHESPRLLITYASQSISGIPSRFSGSGSGTDFTLSINSVETEDFGMYFCQQSNSWPLTFGAGTKLELKR
